Laboratory results taken from PMC12955871, “Structure‐Guided Engineering of a Promiscuous O‐Methyltransferase for a SAM Regeneration Biocatalysis Platform of Methylated Pharmaceuticals” (Advanced Science, 2025).

Assays:
Assay in all cases: HPLC product formation, Michaelis-Menten fit
Format in all cases: biochemical, Selaginella moellendorffii
CC(=O)c1ccc(O)c(O)c1O = conditions: 1.6 mM SAM, pH 8.0, 37 °C, no added SAH, crystal structure is the SAH ternary complex
O=c1ccc2cc3ccoc3c(O)c2o1 = conditions: 1.6 mM SAM, pH 8.0, 37 °C
[1] = system: O=c1c(O)c(-c2ccc(O)c(O)c2)oc2cc(O)cc(O)c12; conditions: 1.6 mM SAM, pH 8.0, 37 °C

Substance: SmOMT (Selaginella moellendorffii)
- Km (CC(=O)c1ccc(O)c(O)c1O): 51.7 µM
- Km (O=c1ccc2cc3ccoc3c(O)c2o1): 225.4 µM
- Km [1]: 585.1 µM
